From paper doi:10.1101/2022.03.17.482250 (bioRxiv, 2022) come the findings set out here.

Sequences and labels used below:
B1: Dynein light intermediate chain (natural protein)
chain: MAPVGVEKKLLLGPNGPAVAAAGDLTSEEEEGQSLWSSILSEVSTRARSKLPSGKNILVFGEDGSGKTTLMTKLQGAEHGKKGRGLEYLYLSVHDEDRDDHTRCNVWILDGDLYHKGLLKFAVSAESLPETLVIFVADMSRPWTVMESLQKWASVLREHIDKMKIPPEKMRELERKFVKDFQDYMEPEEGCQGSPQRRGPLTSGSDEENVALPLGDNVLTHNLGIPVLVVCTKCDAVSVLEKEHDYRDEHLDFIQSHLRRFCLQYGAALIYTSVKEEKNLDLLYKYIVHKTYGFHFTTPALVVEKDAVFIPAGWDNEKKIAILHENFTTVKPEDAYEDFIVKPPVRKLVHDKELAAEDEQVFLMKQQSLLAKQPATPTRASESPARGPSGSPRTQGRGGPASVPSSSPGTSVKKPDPNIKNNAASEGVLASFFNSLLSKKTGSPGSPGAGGVQSTAKKSGQKTVLSNVQEELDRMTRKPDSMVTNSSTENEA
B2: Full-length mouse BICDR1 (natural protein)
chain: MSAFCLGLAGRASAPAEPDSACCMELPAGAGDAVRSPATAAALVSFPGGPGELELALEEELALLAAGERSSEPGEHPQAEPESPVEGHGPPLPPPPTQDPELLSVIRQKEKDLVLAARLGKALLERNQDMSRQYEQMHKELTDKLEHLEQEKHELRRRFENREGEWEGRVSELETDVKQLQDELERQQLHLREADREKTRAVQELSEQNQRLLDQLSRASEVERQLSMQVHALKEDFREKNSSTNQHIIRLESLQAEIKMLSDRKRELEHRLSATLEENDLLQGTVEELQDRVLILERQGHDKDLQLHQSQLELQEVRLSYRQLQGKVEELTEERSLQSSAATSTSLLSEIEQSMEAEELEQEREQLRLQLWEAYCQVRYLCSHLRGNDSADSAVSTDSSMDESSETSSAKDVPAGSLRTALNDLKRLIQSIVDGVEPTVTLLSVEMTALKEERDRLRVTSEDKEPKEQLQKAIRDRDEAIAKKNAVELELAKCKMDMMSLNSQLLDAIQQKLNLSQQLEAWQDDMHRVIDRQLMDTHLKEQSRPAAAAFPRGHGVGRGQEPSTADGKRLFSFFRKI

Holding throughout (assay): cryo-EM structure
Series [1] concerns the target Dynactin (pig (endogenous in pig brain)) (UniProt F2Z5G5).
The series “Full-length mouse BICDR1” addresses B2.
The series “cryo-EM structure” deals with the molecule itself.

Regarding “Human cytoplasmic dynein-1 (from UniProt Q14204;Q13409;O43237;Q9NP97) (complex)”, the stoichiometry N (dynein dimers in the complex) in series [1] was determined as 2.

B1: the binding result with Full-length mouse BICDR1 is listed as “binds”.

In the case of B2, the binding result in “cryo-EM structure” is “binds”. Also, the stoichiometry N (adaptors per dynein-dynactin complex) in series [1] was found to be 2.
